Drawing on paper PMC7261193, “The ancillary N-terminal region of the yeast AP-1 transcription factor Yap8 contributes to its DNA binding specificity”, this text covers Kd for 1 molecule.

By Kd is commonly meant the constant that tells how readily two partners part at equilibrium.

Substitutions are numbered along the chain they refer to.

Common to all, as to conditions: protein: recombinant; tags: GST (N-term); chain copies: 2; label: 5' FAM; blunt
Data set [1] addresses T1, GST-Yap8 WT (Saccharomyces cerevisiae, UniProt Q06596 1-294).
T1 sequence: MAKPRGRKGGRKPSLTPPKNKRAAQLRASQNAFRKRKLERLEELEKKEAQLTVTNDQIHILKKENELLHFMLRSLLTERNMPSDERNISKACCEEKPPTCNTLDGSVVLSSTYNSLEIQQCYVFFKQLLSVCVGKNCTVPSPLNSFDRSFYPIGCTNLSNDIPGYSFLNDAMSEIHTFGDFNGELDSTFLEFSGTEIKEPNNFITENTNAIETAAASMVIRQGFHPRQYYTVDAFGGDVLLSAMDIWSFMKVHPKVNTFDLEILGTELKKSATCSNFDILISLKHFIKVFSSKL
In words: fluorescence anisotropy; series a; FA: 10 mM Tris-HCl pH 8, 50 mM NaCl, 0.5% NP-40, 1 mM DTT, 5% glycerol, 1 nM DNA, 25C (half volume protein elution buffer). Biotin EMSA: LightShift 1x buffer, 50 ng poly(dI-dC), 2.5% glycerol, 0.05% NP-40, 5 mM MgCl2, 20 fmol probe, RT 20 min. 32P EMSA: 10 mM Tris-HCl pH 8.0, 50 mM NaCl, 1 mM DTT, 0.05% NP-40, 100 ng poly(dI-dC), 6% glycerol, 4C 30 min. A general note: In fluorescence polarisation assays a small probe gives low polarisation when free and higher when bound to something large.

Data set [2] concerns the target T2, GST-Yap8-N20A (Saccharomyces cerevisiae, UniProt Q06596 1-294, N20A).
T2 sequence: T1 sequence with N20A
The data set is described as above.

Data set [3] has as its target T1, GST-Yap8 WT. In words: fluorescence anisotropy; series c; FA: 10 mM Tris-HCl pH 8, 50 mM NaCl, 0.5% NP-40, 1 mM DTT, 5% glycerol, 1 nM DNA, 25C (half volume protein elution buffer). Biotin EMSA: LightShift 1x buffer, 50 ng poly(dI-dC), 2.5% glycerol, 0.05% NP-40, 5 mM MgCl2, 20 fmol probe, RT 20 min. 32P EMSA: 10 mM Tris-HCl pH 8.0, 50 mM NaCl, 1 mM DTT, 0.05% NP-40, 100 ng poly(dI-dC), 6% glycerol, 4C 30 min.

For data set [4], the target named is T1, GST-Yap8 WT. In words: fluorescence anisotropy; series b; FA: 10 mM Tris-HCl pH 8, 50 mM NaCl, 0.5% NP-40, 1 mM DTT, 5% glycerol, 1 nM DNA, 25C (half volume protein elution buffer). Biotin EMSA: LightShift 1x buffer, 50 ng poly(dI-dC), 2.5% glycerol, 0.05% NP-40, 5 mM MgCl2, 20 fmol probe, RT 20 min. 32P EMSA: 10 mM Tris-HCl pH 8.0, 50 mM NaCl, 1 mM DTT, 0.05% NP-40, 100 ng poly(dI-dC), 6% glycerol, 4C 30 min.

The target of data set [5] is T3, GST-Yap8-R7A (Saccharomyces cerevisiae, UniProt Q06596 1-294, R7A).
T3 sequence: T1 sequence with R7A
The data set is described as above.

For data set [6], the target named is T4, GST-Yap8-R11A (Saccharomyces cerevisiae, UniProt Q06596 1-294, R11A).
T4 sequence: T1 sequence with R11A
Described as above.

B1: ACR3-WT (FAM) (dsDNA)
DNA 1: CTTTTTGTTTGATTAATAATCAACTTTAGCG
DNA 2: CGCTAAAGTTGATTATTAATCAAACAAAAAG
Take B1: the Kd in data set [1] came to 9.9 ± 1.4 nM; in data set [2], 25.5 ± 4.3 nM; in data set [3] it was 10.8 ± 3.5 nM; in data set [4], 10.8 ± 1.7 nM; in data set [5], 13.4 ± 1.7 nM; in data set [6], 18.9 ± 2.9 nM.
